Laboratory results: the nanobody polyreactivity screen of Harvey et al. (2022)

assay: yeast display, Sf9 membrane polyspecificity reagent, FACS + sequencing; frameworks hold sequencing errors
Method in brief: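 Galactose induction of a Saccharomyces cerevisiae BJ5465 synthetic nanobody display library ran 36–48 hours. The cells were then stained for 1 hour at 4 °C with 10% biotinylated, detergent-solubilized Sf9 membrane reagent, pulled down on streptavidin microbeads and FACS-sorted into low and high (top ~1%) gates on expression and reagent-binding fluorescence. Labels for polyreactivity follow the gate of origin.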

Sequence	polyreactivity (PSR sort gate)
QVQLVESGGGLVQAGGSLRLSCAASGRTFLINAMGWYRQAPGKERELVAAITQSGGSTYYADSVKGRFTISRDNAKNTVYLQMNSLKPEDTAVYYCAADVPGVYPYDYWGQGTQVTVSS	low polyreactivity
QVQLVESGGGLVQAGGSLRLSCAASGRTFRYNAMGWYRQATGKVRELVAAISGRGSSTYYADSVKGRFTISRDNAKNTVYLQMNSLKPDDTAVYYCAALPASVRRPGWHDYWGQGTQVTVSS	high polyreactivity
QVQLVESGGGLVQAGGSLRLSCAASGSIFDAYVMGWYRQAPGKERELVAAISRSGGSTYYADSVKGRFTISRDNAKNTVYLQMNSLKPEDTAVYYCAAEKIRSSPYRYDYWGQGTQVTVSS	low polyreactivity
QVQLVESGGGLVQAGGSLRLSWAASGSIFRSYAMGWYRQAPGKEREFVAAIPNSSGRTYYADSVKGRFTISRDNAKNTVYLQMNSLKPEDTAVYYCAARLPRTYQGGKLYRLQYSWGQGTQVTVSS	high polyreactivity
QVQLVESGVGLVQAGGSLRLSCAASGLIFPYYAMGWYRQAPGKERELVAAITSGSGTYYADSVKGRFTISRDNGKNTVYIQMNSLKPEDTAVYYCNAYILFWEYGYWGQGTQVTVSS	high polyreactivity
QVQLVESGGGLVQAGGSLRLSCAASGSIFEGNGRGWYREAPGKDRELVAAITFRSGSTYYADSVKGRFTISRDNAKNTVYLQMNSLKPEDTAVYYCAADEYYQVSAYDYWGQGTQVTVSS	low polyreactivity
QVQLVDSGGGLVQAGGSLRLICAASGRTFGTNALGWYRQAPGKEREFVAAIRWSDGSTYYADSVKGRFTISRDNAKNTVYLQMNSLKPEDTAVYYCAKEYYIVDVIHDYALYLYDYWGQGTQVTVSS	low polyreactivity
QVQLVESGGGLVQAGGSLRLSCAASGITFNYYAMGWYRQAPGKERELVAAITDDGNTNYADSVKGRFTISRDNAKNTVYLQMNSLKPEDTAVYYCAADLLGIPDYEYWGQGTQVTVSS	low polyreactivity
QVHLVESGGGLVQAGGSLRLSCAASGSIFEAYAMGWSRQAPGKERELVAVISWRGGLTYYPDSVKGRFTISRDNAKNTLYLQMNSLKPDDTAVYYCNKAYWWHQVGLPRNYEYWGQGTQVTVSS	low polyreactivity
QVQLVESGGGLVQAGGRLRLSCAASGSIFPQYAMGWYRQAPGKERELVAAITWSGSRTRYADSVKGRFTISRDNAKNTVYLQMNSLKPEDTAVYYCAARVNGQTYYYWGQGTQVTVSS	high polyreactivity
QVQLVESGGGLVQAGGSLRLSCAASGSTFTQYAMGWYRQAPAKERELFAAISWGGGTTRYADSVKGRFTISRDNAKNTVYLQMNSLKPEDTAVYYCAKRVRTGSVGNFNYWGQGTQVTVSS	high polyreactivity
QVQLVESVGGLVQAGGSLRLSCAASGSTIQGNSMGWYRQAHGKERELVAAISRSGGSTYADSVKGRFTISRDNAKNTVYLEMHSLKPEDTAVFYCAAYSGVGYLWFDYWGQGTQVTVSS	low polyreactivity
QVQLVESVVGLVQAGGSLRLSCASSGSIFYYYTMGWYRHAPGKERELVAAITRGGSTNYADSVKGRFTISRDNAKNTGYLQMNSLKPEDTAVYYCAVAWYRGWYRYDYWGQGTQVTVSS	high polyreactivity
QVQLVESGGGLVQAGGSLRLSCAASGSIFRYNAMGWYRQAPGKERELVAGITWGGGRTYYADSVKGRFTISRDNAKNTVYLQMNSLKPEDTAVYYCAAVIARPAVQAYLVTKYDYWGQGTQVTVSS	high polyreactivity
QVQLVESGGGLVQAGGSLRLSCAASGITIKRYPMGWYRQAPGKEREFVATSSQSGTSTYYADSVKGRFTISRDNAKYTVYLQLNSLKPEDTAVYYCAADYIGYWYGYYSWGQGTQVTVSS	low polyreactivity
QVQHVESGGGLVQAGGSLRLSCAASGYIFKGNVMGWYRQAPGKERELVAAISRSGGRTYYADSVKGRFTISRDNAKNTVYLQLNSLKPDDTAVFYCFTKHRTKPTRPVDYWGQGTQVTVSS	high polyreactivity
QVQLVESGGGLVQAGGSLRLSCAASGSIFDINAMGWYRQAPGKERELVAAISTTSGRTYYADSVKGRFTISRDNAKNTVFLQMNSLKPEDTAVYYCNVSKYVSSYRRGLFNYWGQGTQVTVSS	low polyreactivity
QVQLVESGGGLVQAGGSLRLSCAASGFTFRRYAMGWYRQAPGKERELVAAITRNGGSTYYADSVKGRFTISRDNAKNTVYLQMNRLKPEDTAVYYCNAVLYTPVYDGFDSWGQGTQVTVSS	high polyreactivity
QVQLVESGGGLVQAGGSLRLSCAASGFIFTQNAMGWYRQAPGKERELVAVIRWNGGSTYYADSVKGRFTISRDNAKNTVYLQMNSLKPEDTEVYYCAAEFLWIVDYWGQGTQVTVSS	low polyreactivity
QVQLVESGGGLVQPGGSLRLSCAASGLTISYYAMGWYRQAPGKEREFVAAITSRGGDTYYADSVKGRFTISRDNAKNTVYLQMNSLKPEDTAVYYCAVRPRYYGTYRYYYWGQGTQVTVSS	high polyreactivity
QVQLVESGGGLVQAGGSLRLSCAASGSTFNRYAMGWYRPAPGKDRELVAAISASGGSTYYADSVKGRFRISRDNAKNTVYLQMNSLKPEDTAVYYCATLHYVGQEHDYWGQGTQVTVSS	low polyreactivity
QVQLVESGGGLVQAGGSLRLSCAASGFTFDVYAMGWYRQAPGKERELVAAITGSDGSTYYADSVKGRFTISRDNAKNTVYLQMNSLKPEDTAVYYCNARSRSVVYKYDYWGQGTQVTVSS	low polyreactivity

Sequence	polyreactivity (PSR sort gate)
QVQLVESGGGLVQAGGSLRLSCAASGITFEKYAMGGYRQAPGKERELVAAITSSGGSTYYADSVKGRFTISRDNAKNTVYLQMNSLKPEDTAVYYCKARYYYADRTSGGYYYWGQGTQVTVSS	high polyreactivity
QVQIVESGGGLVQAGGSLRLSCAASGSIFYRYAMGWYRQAPGKEREFVAAIDYSGSITRYADSVKGRFTISRDNAKNTVYLQMNSLKPEDTAVYYCAARSYAKDWGGYNYWGQGTQVTVSS	high polyreactivity
QVQLVESGGGLVQAGGSLRLSCAASGRIFNGYAMGWYRQAPGKERELVAAINSSGGSTYYADSVKGRFTISRDNAKNTVFLQMNSLKPEDTAVYYCARVSYHYRTYDYWGQGTQVTVSS	high polyreactivity
QVQLVESGGGLVQAGGSLRLSCAASGRTFGYYAMGWYRQAPGKERELVAAINSRGGSTYYADSVKGRFTISRDNAKNTVYLQMNSLKPEDTAVYYCAVVRWRQYIFATYDYWGQGTQVTVSS	high polyreactivity
QVQLVESGGGLVQAGGSLRLSCAASGRTFYEYAMGWYRQAPGKERELVAAITRSGGSTYYADSVKGRFTISRDNAKNTVYLQMNSLKPEDTAVYYCAADGIKGGVEYDYWGQGTQVTVSS	high polyreactivity
QVQLVESGGGLVQAGGSLRLSFAASGRIFYVYAMGWYRQAPGKERELVAAITYSGGSTYYADSVKGRFTISRDNAKNTVYLQMNSLKPEDTAVYYCATEGSYTRWSRGLDYWGQGTQVTVSS	low polyreactivity
QVQLVESVGGLVQAGGSLRLSCAASGSIFEQNAMGWYRQAPGKERELVAGINEGGGSTYYADSVKGRFTISRDNAKNTVYLQMNSLKPEDTAVYYCAAEYYDDFSYGWYDYWGQGTQVTVSS	high polyreactivity
QVQLEESGGGLVQAGGSLRLSCAASGRIFSGYAMGWYRQAPGIERELVAAIDSVGDTYYADSVKVRFTISRDNAKNTVYLQMNSLKPEDTAVYYCAAERTVRMVLSPTDEMDYWGQGTQVNVSS	low polyreactivity
QVQLVESGGGLVQAGGSLRLSCADSGSIFLWNTMGWYRQAPGKERELVAAINFSGTRTYYADSVKGRFTISRDNAKNTVYLQMNSLKPEDTAVYYCNARTSRRLDYDYWGQGTQVTVSS	high polyreactivity
QVQLVESGGGLVQAGGSLRLSCAASGSILYRYAMGWYRQAPGKERELVAAITRSGGSTYYADSVKGRFTISRDNAKNTVYLQMNSLKPEDTAVYYCARQRKVSAHSIEMDYWGQGTQVTVSS	low polyreactivity
QVQLVESGGGLVQAGGSLRLSCAASGRIFLGNALGWYRQPPGNERELVAAITYSGRSTYYADSVKGRFTISRDHAKNTVYLQMNSLKPEDTAVYFCAARQYWTTDLPFQRYYYWGQGTQVTVSS	low polyreactivity
QVQLVESGGGLVQAGGSLRLSCAASGFTFRQYAMGWYRQAPGKERELVAAISRSGSRTYYADSVKGRFTISRDNAKNTVYLQMNSLKPEDTAVYYCNAVFSTITGEYYWGQGTQVTVSS	high polyreactivity
QVQRVESGGGLVQAGGSLRLRCAASGFIFWLYAMGWYRQAPAKERELVAAISNGGSTNYADSVKGRFTISRDNAKNTVYLQMNSLKPEDTAVYYCAAKFPRRYYWYDYWGQGTQVTVSS	high polyreactivity
QVQLVESGGGLVQAGGSLRLSCAASGSIYVSYAMGWYRQAPGKERELVATITTSTGSTYADSVKGRFTISRDNAKNTVYLQMNSLKPEDTAVYYCAARYQPWLNDDFDSWGQGTQVTVSS	low polyreactivity
QVQLVESGGGLVQAGGSLRLSCAASGSIIRRYAMGWYRQAPGKERELVAAISSNGGSTYYADSVKGRFTISRDNAKNTVYLQMNSLKPEDTAVYYCNKLSSYVVARRTTEYDYWGQGTQVTVSS	high polyreactivity
QVQLVESGGGLLQAGGSLRLSCAASGRTFNYYAMGWYRQAPWKESELVADIRGRGGSTYYADSVKGRFTISRDNAKITVYLQMNSLKPEDKAVYYCARRSPYPYSIYYYWGQGTQVTVSS	high polyreactivity
QVQLVESGGGLVQAGGRLRLSSAASGLTFPYYAMGWYRQAPGKERELVAVITTSTGTTYYADSVKGRFTISRDNAKNTVYLQMNSLKPEVTAVYYCATDTGAYWYSLYDYWGQGTQVTVSS	low polyreactivity
QVQLVESGGGLVQAGGSLRLSCAASGSTLGVYAMGWYRQAPGTERELVAAISSGGSTTYADSVKGRFTISRDNEKNTVYLQMNSLKPEDTAVYYCAADRYEGYVTWYWWGAYNYDYWGQGTQVTVSS	high polyreactivity
QVHLVESGGGLVQAGGSLRLSCAASASTFLYYAMGWNRQPPGKERELVAVISWSGVSTYYADSVKGRFTSSRDNAKYTVYLQMNSLKPEDTAVYYCNTGNHYIRTYGYWGQGTQVTVSS	low polyreactivity
QVQLVESGGRLVQAGGSLRLSCAASGRTFQSYAMGWYRQAPGKERELVAAITITGGRTYYADSVKGRFTISRDNAKNTVYLQMNSLKPEDTAVYYCAAEEYSHYTLGYDYWGQGTQVTVSS	low polyreactivity
QVQLVESGGGLVQAGGSLRLSCAASGRTFVRYAMGWYRQATGNERELVAAISTSGGNTYYADSVKGRFSISRDNAKNTVYLQMNSLKPEDTAVYYCANDRGPNAKFDDWGQGTQVTVSS	low polyreactivity
